The values that follow are results of earlier work, collected in paper PMC5626786.

The target in the data set is Ark1p peptide (Saccharomyces cerevisiae) (UniProt P53974).
Chain of UniProt P53974 (P53974 whole entry): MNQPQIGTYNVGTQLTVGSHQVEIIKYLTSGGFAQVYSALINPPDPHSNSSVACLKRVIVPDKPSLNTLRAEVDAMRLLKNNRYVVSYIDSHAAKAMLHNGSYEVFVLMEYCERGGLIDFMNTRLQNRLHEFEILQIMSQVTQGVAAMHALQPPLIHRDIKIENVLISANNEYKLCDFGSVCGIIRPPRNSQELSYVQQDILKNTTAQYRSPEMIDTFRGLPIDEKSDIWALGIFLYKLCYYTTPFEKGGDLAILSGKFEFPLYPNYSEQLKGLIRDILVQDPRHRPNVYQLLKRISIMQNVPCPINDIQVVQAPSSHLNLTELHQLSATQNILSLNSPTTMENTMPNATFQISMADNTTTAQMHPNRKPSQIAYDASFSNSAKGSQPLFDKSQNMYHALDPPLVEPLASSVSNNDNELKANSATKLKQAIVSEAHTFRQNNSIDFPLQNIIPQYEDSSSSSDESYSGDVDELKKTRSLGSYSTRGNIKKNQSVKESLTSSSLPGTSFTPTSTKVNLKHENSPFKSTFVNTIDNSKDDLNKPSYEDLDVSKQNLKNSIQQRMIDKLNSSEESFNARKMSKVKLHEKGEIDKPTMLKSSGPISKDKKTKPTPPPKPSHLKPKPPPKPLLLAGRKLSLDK

The Kd is the equilibrium constant for the complex coming apart. As for Abp1p SH3 (from UniProt P15891), the Kd is 4.4 µM.
